Experimental findings from US20200086139A1, “COMBINATION THERAPY FOR THE TREATMENT OF GLIOBLASTOMA” (Genentech, Inc., priority 2012, published 2020) are described below.

The nature of data set [1]: AVAglio Phase III trial, safety (adverse events). It counts as in vivo, human. Set-up: unit not given here. The text has this:
(§1) A randomized, double blind, placebo controlled multicenter Phase III trial of bevacizumab, temozolomide and radiotherapy, followed by bevacizumab and temozolomide versus placebo, temozolomide and radiotherapy followed by placebo and temozolomide in patients with newly diagnosed glioblastoma (AVAglio)
(§2) The AVAglio trial evaluated the efficacy and safety of bevacizumab in combination temozolomide and radiotherapy for newly diagnosed glioblastoma. This study was designed as a prospective, randomized, double blind, placebo controlled Phase III evaluation of bevacizumab plus chemotherapy versus chemotherapy alone. To be eligible, patients must have newly diagnosed glioblastoma with a tissue diagnosis that has been established following either a surgical resection or biopsy. By adding bevacizumab to chemotherapy and radiotherapy, the AVAglio trial aimed to improve overall survival (OS) and progression-free survival (PFS) for this group of patients who have limited therapeutic options and face a particularly poor prognosis. The primary objective was to compare OS and PFS of patients randomised to temozolomide and radiotherapy only or to temozolomide and radiotherapy plus bevacizumab.
(§3) Study Design—This trial consisted of three phases (Concurrent, Maintenance, and Monotherapy) and two (2) treatment arms: temozolomide and radiotherapy (Arm 1) and temozolomide and radiotherapy plus bevacizumab (Arm 2). Patients were randomly assigned (1:1) to either arm, see FIG. 1.
(§4) Eligible patients received 2 Gy radiotherapy 5 days a week for 6 weeks and 75 mg/m^2 temozolomide (TMZ) orally daily for 6 weeks from the first day to the last day of radiotherapy. After a 4 week treatment break, eligible patients received 6 cycles of 150-200 mg/m^2 TMZ on days 1-5 of a every 4 weeks schedule in combination with 10 mg/kg placebo IV every 2 weeks. TMZ was administered orally starting with a 150 mg/m^2 dose that could be escalated. Placebo monotherapy (15 mg/kg every 3 weeks) was then continued until disease progression.
(§5) Eligible patients received 2 Gy radiotherapy 5 days a week for 6 weeks and 75 mg/m^2 TMZ orally daily for 6 weeks from the first day to the last day of radiotherapy in combination with 10 mg/kg bevacizumab IV every 2 weeks. After a 4 week treatment break, eligible patients received 6 cycles of 150-200 mg/m^2 TMZ on days 1-5 of a every 4 weeks schedule in combination with 10 mg/kg bevacizumab IV every 2 weeks. TMZ was administered orally starting with a 150 mg/m^2 dose that could be escalated. Bevacizumab monotherapy (15 mg/kg every 3 weeks) was then continued until disease progression.
(§6) The initial bevacizumab infusion was over 90 minutes, with subsequent infusions over 60 minutes and then 30 minutes, as tolerated. Bevacizumab was administered on the day of the last day of radiotherapy and TMZ, i.e., the day before the start of the TMZ treatment break.
Patients≥18 years of age and with newly diagnosed supratentorial Glioblastoma (GBM) with a tissue diagnosis that has been established following either a surgical resection or biopsy. […] Patients must have WHO performance status≤2.
Eligible patients had newly diagnosed glioblastoma (WHO performance status≤2). After surgical resection, patients were randomized to concurrent therapy with temozolomide with radiation and placebo or temozolomide with radiation and bevacizumab followed by a 28 day treatment break, maintenance therapy with 10 mg/kg bevacizumab or placebo administered every two weeks in combination with temozolomide, and monotherapy with 15 mg/kg bevacizumab or placebo was administered every three weeks until disease progression or unacceptable toxicity. Patients in the placebo arm were treated at the investigators discretion at progression.

In data set [2] the test system is newly diagnosed glioblastoma. Nature of the data set: AVAglio Phase III trial, efficacy (PFS, ORR, pseudoprogression, steroid discontinuation). It counts as in vivo, human.
Description: as §1, §2, §3, §4, §5, §6
Analyses of PFS was based on tumor assessments MacDonald Response Criteria (modified WHO criteria) using MRI of the brain and a neurological evaluation as described in Macdonald et al., Response criteria for phase II studies of supratentorial malignant glioma. J Clin Oncol 1990; 8:1277-80.
Tumor assessments were performed at baseline, at the end of the 4 week treatment break, then then every 8 weeks.
Patients≥18 years of age and with newly diagnosed supratentorial Glioblastoma (GBM) with a tissue diagnosis that has been established following either a surgical resection or biopsy. This includes treatment-naïve—(chemotherapy and radiotherapy)—patients with prior diagnosis of a lower grade astrocytoma that has been upgraded to a histologically verified GBM. Patients must have WHO performance status≤2.
Eligible patients had newly diagnosed glioblastoma (WHO performance status≤2). […]

Consider “bevacizumab + RT + T: Arm 2 of AVAglio: bevacizumab (recombinant humanized anti-VEGF monoclonal antibody) with temozolomide and radiotherapy”, for which, in data set [1], the “Thromboembolic event Arterial (all grade)” value is reported as 5 and the “Thromboembolic event Venous (Grade ≥3)” value is listed as 7.3. Besides, in data set [1] (adverse event), the “CHF (grade ≥3)” value amounted to 0.4, the “Fistula/abscess (all grade)” value was 0.6, the “Hypertension (Grade ≥3)” value is recorded as 10.3 and the “PRES (Posterior reversible encephalopathy syndrome) (all grade)” value stood at 0. Further, in data set [1] (adverse event), the “Proteinuria (Grade ≥3)” value stood at 3.7. Moreover, in data set [1] (adverse event, Grade ≥3), the “Bleeding (Grade ≥3) Cerebral Hemorrhage” value is given as 1.5, the “Bleeding (Grade ≥3) Mucocutaneous bleeding” value is recorded as 0.4 and the “Bleeding (Grade ≥3) Other” value amounted to 0.6. In addition, in data set [1] (adverse event, all grade), the “Bleeding (all grade) Cerebral Hemorrhage” value is 2.6, the “Bleeding (all grade) Mucocutaneous bleeding” value came to 26.7 and the “Bleeding (all grade) Other” value is on record as 11.6. The “Best ORR: Difference, % (95% CI)” value in data set [2] (Bv + T/RT versus P + T/RT, p =< 0.001) is 20.4 (13.9-26.8) %. Also, the “Events, %” value in data set [2] (PFS events, percent of patients) is on record as 77.3%. Further, the “HR (95% CI)” value in data set [2] (PFS hazard ratio, bevacizumab + RT + T versus placebo + RT + T, log-rank p < 0.0001) is given as 0.64 (0.55-0.74). For the same substance, in data set [2] (addition to first line temozolomide plus radiotherapy), the “effect on ORR (in words)” value is recorded as “significantly improves ORR”. Besides, in data set [2] (end of treatment break), the “Potential PsPD, %” value worked out at 2.6%. In addition, in data set [2] (median progression-free survival, MacDonald Response Criteria, patients with newly diagnosed glioblastoma), the “PFS (months)” value amounted to 10.6 months. Besides, the “Best ORR: % (95% CI)” value in data set [2] (objective response rate) is reported as 38.4 (33.5-43.5) %. Further, in data set [2] (patients on steroids at baseline), the “patients on steroids at baseline able to discontinue steroids for part of their progression-free survival interval” value is 66%. Moreover, in data set [2] (post-2nd maintenance cycle), the “Confirmed PsPD, %” value is 2.2% and the “Rejected PsPD, %” value stood at 0.2%. Besides, the “improvement in PFS (in words)” value in data set [2] (versus chemotherapy in combination with radiotherapy) was “statistically significant and clinically meaningful improvement in PFS”.
